# B1: β-glycosidase from Pyrococcus woesei (DSM 3773) (Pyrococcus woesei; T436I) (protein)
# chain: MFPEKFLWGVAQSGFQFEMGDKLRRNIDTNTDWWHWVRDKTNIEKGLVSGDLPEEGINNYELYEKDHEIARKLGLNAYRIGIEWSRIFPWPTTFIDVDYSYNESYNLIEDVKITKDTLEELDEIANKREVAYYRSVINSLRSKGFKVIVNLNHFTLPYWLHDPIEARERALTNKRNGWVNPRTVIEFAKYAAYIAYKFGDIVDMWSTFNEPMVVVELGYLAPYSGFPPGVLNPEAAKLAILHMINAHALAYRQIKKFDTEKADKDSKEPAEVGIIYNNIGVAYPKDPNDSKDVKAAENDNFFHSGLFFEAIHKGKLNIEFDGETFIDAPYLKGNDWIGVNYYTREVVTYQEPMFPSIPLITFKGVQGYGYACRPGTLSKDDRPVSDIGWELYPEGMYDSIVEAHKYGVPVYVTENGIADSKDILRPYYIASHIKMIEKAFEDGYEVKGYFHWALTDNFEWALGFRMRFGLYEVNLITKERIPREKSVSIFREIVANNGVTKKIEEELLRG
# notes: N-terminal His6-tag (pETDuet-1, tag kept), E. coli Rosetta2(DE3)pLysS; cloned gene differs from AF043283.1 by T436I, as in P. furiosus E08095.1 / AAC44387.1
# Substrate: CC(=O)N[C@@H]1[C@@H](O)[C@H](O)[C@@H](CO)O[C@H]1NC(=S)NCCNC(=O)OC(C)(C)C
# Experiment: transgalactosylation kinetics, HPLC
# Format: biochemical, Pyrococcus woesei
# Conditions: acceptor substrate varied, donor lactose, 85 °C thermal heating, citrate-phosphate buffer pH 5.5
protein,measurement,value
B1,Km,15.6 mM

# Reference: publication PMC4783942, “Microwave-Assisted Synthesis of Glycoconjugates by Transgalactosylation with Recombinant Thermostable β-Glycosidase from Pyrococcus” (International Journal of Molecular Sciences, 2016)
